Measurements: article PMC7883291, “Selective cross‐linking of coinciding protein assemblies by in‐gel cross‐linking mass spectrometry” (The EMBO Journal, 2021)
Where “and” joins values, the source holds several entries; their conditions need not be identical. Identical values can stand only once.

Target: T1, Escherichia coli GroEL chaperone (Escherichia coli, UniProt P0A6F5 2-548)
T1 construct: GroEL chaperonin, Escherichia coli; monomer band at 57 kDa, native 14-mer of 800 kDa; also called 14-mer GroEL; source: expressed and purified as previously described; copies: 14
Assay: native gel or EMSA; BN-PAGE after incubation of unfolded gp23 (11.4 µM) with GroEL (0.8 µM) in 50 mM Tris pH 7.5, 50 mM KCl, MgCl2, 1 mM ADP, 10 min at RT; subunits in the bands quantified by iBAQ
Settings: both partners purified

T1 sequence (P0A6F5 2-548): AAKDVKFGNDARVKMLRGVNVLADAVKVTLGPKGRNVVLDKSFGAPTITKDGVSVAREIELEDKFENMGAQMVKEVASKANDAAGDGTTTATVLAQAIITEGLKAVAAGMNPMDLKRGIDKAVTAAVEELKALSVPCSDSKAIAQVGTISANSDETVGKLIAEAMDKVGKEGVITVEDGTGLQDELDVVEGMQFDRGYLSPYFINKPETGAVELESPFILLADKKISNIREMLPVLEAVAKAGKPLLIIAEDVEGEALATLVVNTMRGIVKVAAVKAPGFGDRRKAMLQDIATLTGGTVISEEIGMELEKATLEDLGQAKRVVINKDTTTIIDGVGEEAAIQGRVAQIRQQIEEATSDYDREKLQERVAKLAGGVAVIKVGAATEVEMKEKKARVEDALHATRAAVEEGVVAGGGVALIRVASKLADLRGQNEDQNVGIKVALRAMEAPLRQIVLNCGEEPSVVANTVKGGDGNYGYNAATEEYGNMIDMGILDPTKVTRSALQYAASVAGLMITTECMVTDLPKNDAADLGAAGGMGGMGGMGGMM

B1: bacteriophage T4 capsid protein (gp23) (natural protein, UniProt P04535 1-521, looked up)
chain: MTIKTKAELLNKWKPLLEGEGLPEIANSKQAIIAKIFENQEKDFQTAPEYKDEKIAQAFGSFLTEAEIGGDHGYNATNIAAGQTSGAVTQIGPAVMGMVRRAIPNLIAFDICGVQPMNSPTGQVFALRAVYGKDPVAAGAKEAFHPMYGPDAMFSGQGAAKKFPALAASTQTTVGDIYTHFFQETGTVYLQASVQVTIDAGATDAAKLDAEIKKQMEAGALVEIAEGMATSIAELQEGFNGSTDNPWNEMGFRIDKQVIEAKSRQLKAAYSIELAQDLRAVHGMDADAELSGILATEIMLEINREVVDWINYSAQVGKSGMTLTPGSKAGVFDFQDPIDIRGARWAGESFKALLFQIDKEAVEIARQTGRGEGNFIIASRNVVNVLASVDTGISYAAQGLATGFSTDTTKSVFAGVLGGKYRVYIDQYAKQDYFTVGYKGPNEMDAGIYYAPYVALTPLRGSDPKNFQPVMGFKTRYGIGINPFAESAAQAPASRIQSGMPSILNSLGKNAYFRRVYVKGI
notes: major capsid protein gp23 of bacteriophage T4, printed size 56 kDa; Used as an unfolded substrate of GroEL; also called major capsid protein gp23; unfolded gp23; source: expressed and purified as previously described; unfolded in 8 M urea for one hour at RT
stoichiometry N: 1 and 2
